Measurements from paper PMC3585228, “Consequences of ChemR23 Heteromerization with the Chemokine Receptors CXCR4 and CCR7” (PLoS ONE, 2013).

What was measured:
CCR7 on CHO-K1 cells [1] = biological target: T1, CCR7 on CHO-K1 cells (human, UniProt P32248 25-378); assay: cell-based or functional assay
T1 sequence (looked up): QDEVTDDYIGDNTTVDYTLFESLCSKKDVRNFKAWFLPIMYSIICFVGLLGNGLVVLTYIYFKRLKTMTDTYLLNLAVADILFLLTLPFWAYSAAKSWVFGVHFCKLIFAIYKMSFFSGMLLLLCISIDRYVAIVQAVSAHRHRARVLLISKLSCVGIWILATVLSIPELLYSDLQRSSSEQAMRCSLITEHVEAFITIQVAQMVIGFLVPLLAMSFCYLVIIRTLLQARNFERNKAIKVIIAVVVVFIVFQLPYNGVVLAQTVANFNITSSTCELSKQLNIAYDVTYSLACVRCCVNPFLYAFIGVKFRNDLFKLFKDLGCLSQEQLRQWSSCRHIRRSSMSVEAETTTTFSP

CCR7 on CHO-K1 cells [2] = biological target: T1, CCR7 on CHO-K1 cells; assay: radioligand binding; competition on CHO-K1 cells expressing CCR7 only (methods: membrane preparations); tracer 0.1 nM 125I-CCL19; 50 mM Hepes pH 7.4, 1 mM CaCl2, 5 mM MgCl2, 0.5% BSA; one hour; filtration; settings: one partner purified
CCR7 on CHO-K1 cells [3] = biological target: T1, CCR7 on CHO-K1 cells; assay: radioligand binding; competition on CHO-K1 cells co-expressing ChemR23 and CCR7; tracer 0.1 nM 125I-CCL19; competitors CCL19 (homologous) or chemerin (heterologous, cross-competition); same buffer, one hour, filtration; settings: one partner purified
CCR7 on CHO-K1 cells [4] = biological target: T1, CCR7 on CHO-K1 cells; assay: radioligand binding; competition on CHO-K1 cells co-expressing ChemR23 and CCR7; tracer 0.1 nM 125I-[145-157]-chemerin; competitors chemerin (homologous) or CCL19 (heterologous, cross-competition); same buffer, one hour, filtration; settings: one partner purified
CXCR4-hRLuc / CXCR4-EYFP = biological target: T2, CXCR4-hRLuc / CXCR4-EYFP (human, UniProt P61073 1-352); assay: FRET or BRET; BRET titration in HEK293T cells: constant amount of the hRLuc donor construct, increasing amounts of the EYFP acceptor construct; signal recorded 5 minutes after coelenterazine H; settings: partners not purified
T2 construct: chemokine receptor CXCR4; cDNA in pcDNA3.1, fusion at its 3' end; Two constructs, each with ONE of the two fusions: CXCR4-hRLuc (donor) and CXCR4-EYFP (acceptor); source: HEK-293T, transfected (calcium phosphate), in living cells; not shown: hRLuc (humanized Renilla luciferase), C-terminal, kept; EYFP, C-terminal, kept
T2 sequence (P61073 whole entry, the tested form may be a part): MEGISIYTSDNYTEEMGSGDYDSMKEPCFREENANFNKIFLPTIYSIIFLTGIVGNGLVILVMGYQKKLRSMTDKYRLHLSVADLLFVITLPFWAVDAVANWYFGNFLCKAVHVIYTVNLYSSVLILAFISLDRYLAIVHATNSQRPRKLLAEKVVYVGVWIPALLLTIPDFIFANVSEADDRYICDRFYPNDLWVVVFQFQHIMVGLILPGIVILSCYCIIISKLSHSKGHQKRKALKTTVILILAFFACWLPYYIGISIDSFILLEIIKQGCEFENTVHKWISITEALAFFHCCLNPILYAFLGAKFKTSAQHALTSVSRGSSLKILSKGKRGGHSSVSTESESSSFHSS

CCR7-hRLuc / CCR7-EYFP = biological target: T3, CCR7-hRLuc / CCR7-EYFP (human, UniProt P32248 25-378); assay: as above; settings: partners not purified
T3 construct: chemokine receptor CCR7; cDNA in pcDNA3.1, fusion at its 3' end; Two constructs, each with ONE of the two fusions: CCR7-hRLuc (donor) and CCR7-EYFP (acceptor); source: HEK-293T, transfected (calcium phosphate), in living cells; not shown: hRLuc (humanized Renilla luciferase), C-terminal, kept; EYFP, C-terminal, kept
T3 sequence (looked up): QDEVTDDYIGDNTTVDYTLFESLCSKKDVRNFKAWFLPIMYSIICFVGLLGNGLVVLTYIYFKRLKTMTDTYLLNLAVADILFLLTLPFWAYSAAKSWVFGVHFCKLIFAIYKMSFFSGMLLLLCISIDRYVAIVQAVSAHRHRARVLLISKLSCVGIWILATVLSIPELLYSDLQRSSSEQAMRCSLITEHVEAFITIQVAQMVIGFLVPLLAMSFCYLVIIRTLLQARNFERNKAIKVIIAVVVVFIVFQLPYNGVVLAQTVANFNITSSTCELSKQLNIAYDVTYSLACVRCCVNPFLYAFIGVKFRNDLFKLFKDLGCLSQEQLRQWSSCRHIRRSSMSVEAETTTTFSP

| Binder | EC50 of calcium mobilization (aequorin assay), CHO-K1 cells expressing CCR7 only (CCR7 on CHO-K1 cells [1]) | IC50 (CCR7 on CHO-K1 cells [2]) | IC50 (CCR7 on CHO-K1 cells [3]) | IC50 (CCR7 on CHO-K1 cells [4]) | BRET50, fold against the CXCR4 homomer (CXCR4-hRLuc / CXCR4-EYFP) | BRET50, fold against the CCR7 homomer (CCR7-hRLuc / CCR7-EYFP) |
| --- | --- | --- | --- | --- | --- | --- |
| CCL19 (unlabelled) (ligand, UniProt Q99731 22-98, looked up, chemokine CCL19, the CCR7-specific ligand) GTNDAEDCCLSVTQKPIPGYIVRNFHYLLIKDGCRVPAVVFTTLRGRQLCAPPDQPWVERIIQRLQRTSAKMKRRSS | 7.66 nM | 2.42 nM | 0.27 nM | 6.85 nM |  |  |
| ChemR23-hRLuc / ChemR23-EYFP (receptor, human, UniProt Q99788 1-373, looked up, ChemR23, the receptor of chemerin; cDNA in pcDNA3.1, fusion at its 3' end; Two constructs, each with ONE of the two fusions: ChemR23-hRLuc (BRET donor) and ChemR23-EYFP (BRET acceptor); source: HEK-293T, transfected (calcium phosphate), in living cells; not shown: hRLuc (humanized Renilla luciferase), C-terminal, kept; EYFP, C-terminal, kept) MRMEDEDYNTSISYGDEYPDYLDSIVVLEDLSPLEARVTRIFLVVVYSIVCFLGILGNGLVIIIATFKMKKTVNMVWFLNLAVADFLFNVFLPIHITYAAMDYHWVFGTAMCKISNFLLIHNMFTSVFLLTIISSDRCISVLLPVWSQNHRSVRLAYMACMVIWVLAFFLSSPSLVFRDTANLHGKISCFNNFSLSTPGSSSWPTHSQMDPVGYSRHMVVTVTRFLCGFLVPVLIITACYLTIVCKLQRNRLAKTKKPFKIIVTIIITFFLCWCPYHTLNLLELHHTAMPGSVFSLGLPLATALAIANSCMNPILYVFMGQDFKKFKVALFSRLVNALSEDTGHSSYPSHRSFTKMSSMNERTSMNERETGML |  |  |  |  | 2 fold | 2 fold |
